Target: actin from rabbit skeletal muscle (F actin) (rabbit, UniProt P68135 1-377)
Assay: co-sedimentation

B1: transgelin (natural protein)
chain: MANKGPSYGMSREVQSKIEKKYDEELEERLVEWIVVQCGPDVGRPDRGRLGFQVWLKNGVILSKLVNSLYPDGSKPVKVPENPPSMVFKQMEQVAQFLKAAEDYGVTKTDMFQTVDLFEGKDLAAVQRTLMALGSLAVTKNDGHYRGDPNWFMKKAQEHKREFTESQLQEGKHVIGLQMGSNRGASQLAGHSILPRLPHTQPCSSFSPGQASRLRH
  stoichiometry N: 6 actin monomers per transgelin

Reference: article PMC2119678 (The Journal of Cell Biology, 1993)
